From the nanobody polyreactivity screen of Harvey et al. (2022) come the findings set out here.

The nature of the data set: yeast display, Sf9 membrane polyspecificity reagent, FACS + sequencing; frameworks hold sequencing errors. The gist of the method: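 In a synthetic yeast display library (Saccharomyces cerevisiae BJ5465), nanobody expression was induced with galactose for 36–48 hours. FACS gates were set low and high (top ~1%) using anti-HA fluorescence for expression and streptavidin fluorescence for binding of the Sf9 membrane reagent. Each polyreactivity label is drawn from the gate of origin.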
For the sequence “QLHLVESGGGLVQAGGSLRLSCAGSGFTFGHSAMGWYRQAPGNDRELVASITWSGGSTYYADSVKGRFTISRDNAKNTVYLQMNSRKPEDTAVYYCNAQERRVRDYDYWGQGTQVTVSS”, the “polyreactivity (PSR sort gate)” value was “low polyreactivity”.
The result for “QVQLVESGGGLVQAGGSLRLSCAASGRTFGHNAMGWYRQAPGKEREFVAAITYSGVRTFYADSVKGRFTISRDNAKNTVYLQMNSLKPEDTAVYYCATDWRRDYDYWGQGTQVTVSS” reads “low polyreactivity”; that for “QVQLVESGGGLVQAGGSLRLSCAASGSIFSVNAMGWYRQAPGKETELVAGITISGGRTYYADSVKGRFTISRDNAKNTVYLQLNSLKPEDNAVYYCAADWVYPPGLKDSVHFGEYDYWGEGTQVTVSS”, “low polyreactivity”; that for “QVQLVESCGGLVQAGGSLRLSCAATGLIIRGNDMVWYRQAPWKERELVAGINSSGSTNYADSVKVRFTISRDNAKNTVYLQMNSLKPEDTAVYYCAARAIVSFDYWGQGTQVTVSS”, “low polyreactivity”.
To “QVQLQESGGGLVQAGGSLRLSCAACGNIFKYTNMGSYRQAPGKERELVATISDGASTNYADSVKGRFTISRDNAINTVYLQMNSLKPEDTAVYYCNAEGYVRFNYWGQCTQVTVSS” belongs “high polyreactivity”.
In the case of “QVQLVESGGGLVQAGGSLRLSCAASGFTFKYYTMGWYRQAPGKERELVAAISSAASTNYADSVKGRFTISRDNAKNTVYLQMNSLKPEDTAVYYCNADITGWARIRYQWIRQYDYWGQGTQVTVSS”, the “polyreactivity (PSR sort gate)” value was “high polyreactivity”.
Regarding “QVQLVESGGGLVQAGCSRRLSWAASGSTFPDYVMGWDRQAPGKERELVAAISSIGGSTYYADSVKGRFTISRDNAKNTVYLQMNSLKPEDSAVYYCAAENSYFYPFDYWGQGTQVTVSS”, the “polyreactivity (PSR sort gate)” value is recorded as “low polyreactivity”.
As for “QGQLVESGGGLVQAGGSLRLSCAASGRIFVPYGMGWYRQAPGKERELVAAITTGGSTNYADSVKGRFTISRDNAKNTVYLQMNSLKPEDTAVYYCAVDWYPQLIYSFNSELEYWGQGTQVTVSS”, the “polyreactivity (PSR sort gate)” value is “low polyreactivity”.
With “QVQLVESGGGLVQAGGSLRLSCAASGSIFPIYAMGWYRPAPGKERELVAAINRSGGSTYYADSVKGRFTISRDNAKNTVYLQMNSLKPEDTAVYYCNADYGYHNQLFWGYYGWSSDHWGQGTQVTVSS”, the “polyreactivity (PSR sort gate)” value is “low polyreactivity”.
On to “QVQLVESGGGLVQAGGSLRLSCAASGSSKLRLWDGIDRRLGQKGSWLPLFVLVVLRNYADSVKGRFTISSDNAKNTVYLQMNSLKPEDTAVYYCAATPIGSGGWGDYWGQGTQVTVSS”, for which the “polyreactivity (PSR sort gate)” value is “low polyreactivity”.
As to “QVQLVESGGGLVQAGGSLRLSCAASGGTFSKYAMGWYRQAPGKEREFVAAITVSGGGTYYADSVKGRFTISRDNAKNTVYLQMNSLKPEDTAVYYCAADLAWTASDYWGQGTQVTVSS”, the “polyreactivity (PSR sort gate)” value is “low polyreactivity”.
To “QVQLVESGGGLVQAGGSLRLSCAASGRIFQGYAKGWYRQAPGKEREFVAAITASGGTTYYADSVKGRFTISRDNAKNTVYLQMNSLKPEDTAVYYCAKYRYTVAGYNYWGQGTQVTVSS” belongs “high polyreactivity”; to “QDQHVESGGGLVQAGGSLRLSCAASGSTFVYYAMGWYRQAPGKERELVAVITWSGGRTYYADSVKGRFTISRDNAKNTVYLQMNSLKPEDTAGYYCAADPLSGYDYWGQGTQVTVSS”, “low polyreactivity”.
To “QVQLVESGGGLVQAGGSLRLSCAASGSTFGYYAMGWYRQAPGKERELVAVITRGGSTYYADSVKGRFTISRDNAKNTVYLQMNSLKQEDTAVYYCNARVLAVHYGYWGQGTQVTVSS” belongs “high polyreactivity”; to “QVQLVESGGGLVQAGGSLRLTCAASGSIFYYNAMGWYRQAPGKERELVAAISSDGSTYYADSVKGRFTISRDNAKNTVYLQMNSLKPEDTAVYYSAAATLTWSRWGSYYEYDYWGQGTQVTVSS”, “low polyreactivity”; to “QVQLVESGGGLVQAGGSLRLSCAASGSTFATYTMGWYRQAPGKERELVATISRSGTTTYYADSVKGRFTISRDNAKYTVYLQMNSLKPEDTAVYYCNTLRAYWTYHFYGAVRDGYDYWGQGTQVTVST”, “low polyreactivity”.
The result for “QVQLVESGGGLVQAGGSLRLSCAATGSTFYVNDMGWYRQAPGKERELVAAIDWTGGTTYYADSEKGRFTISRDNAKNTVYLQMNSLKPEDSAVYYCAVDDSTVDYDYWGQGTQVTVSS” reads “low polyreactivity”.
For “QVQLVESGGGLVQAGGSLRLSCAASGVIFYFNALGWYRQAPGKERELVAAISGGDNTYYADSVKGRFTISRDNAKNTVYLQMNSLKPEDTAVYYCAAKYRYGQNGYYLYGYWGQGTQVTVSS”, the “polyreactivity (PSR sort gate)” value is on record as “low polyreactivity”.
Regarding “QVQLVESGGGLVQAGGSLRLSCAASGRTFVGNAMGWYRQAPGKERELVATITGSGGRTYYADSVKGRFTISRDNAKNTVYLQMNSLKPEDTAVYYCAAKRSRYRYDYWGQGTQVTVSS”, the “polyreactivity (PSR sort gate)” value is listed as “high polyreactivity”.
To “QVQLQESDGGLVQAGGSLRLTCAASGSISPQYYMGWYRQAPGKEREFVAISKGTTTYYADSVKGRLTISRVNANNTVYLQMNSLKPEDTAVYCCAAGRWLQKVHAYWDQGTQVTVSS” belongs “low polyreactivity”; to “QVQLVESGGGLVQAGGSLLLSCAASGFTFYGYVMGWYRQAPGKERELVAGITWRGGSTYYADSVKGRFTISRDNAKNTVYLQMNSLKPEDTAVYYCAAKSFRRGTFDYWGQGTQVTVSS”, “high polyreactivity”.
The result for “QDQLVESGGGLVQAGGSLRLSCAASGNIFVTNAMGWYRQAPGKERELVAAITYSGGTTYYADSVKGRFTISRDNAKNTVYLQMNSLKPEDTAVYYCAADFATWTYYPYRLDEFDYWGQGTQVTVSS” reads “low polyreactivity”.
The result for “QVQLEESGGGLVQAGGSLRLSCAASGRTLRVNAIGWYRQAPGKERELVAANSSGGRTNYADSVKGRFTISRDNAKNTVYLQMNSLKPEDTAVYYCAVDRPRFPSRPPYHKYDYWGQGTQVTVSS” reads “low polyreactivity”.
For the sequence “QVQLVESGGGLVQAGGSLRLSCAASGFIFYRYTMGWYRQAPGKERELVAGISSRGTRTYYADSVKGRFTISRDNAKNTVYLQMNSLKPEDTAVYYCAAVLTQPKKVNYWGQGTQVTVSS”, the “polyreactivity (PSR sort gate)” value is recorded as “high polyreactivity”.
As to “QVQLVESGGGLVQAGGSLRLSCAASGFTFANYVMGWSRQAPGKERELVAAITTPGGSTSYADSVKGRFTISRDNAKNTVYLQMNSLKPEDTAVYYCNKTTYYPSDYDYWGQGTQETVSS”, the “polyreactivity (PSR sort gate)” value was “low polyreactivity”.
To “QVQLVESGGGLVQAGGSLRLSCAASGRIFTRYAMGWYRQAPGKERELVAAINYRGSSTYYADSVKGRFTISRDNAKKTVYLQMNSLTPEDTAVYYCNTYGQTDTYWRYYYWGQGTQVTVSS” belongs “high polyreactivity”.
Turning to “QVQLVESGAGLVQAGGSLRLTCAASGFIFRRNAMGWYRQAPGKERELVAAITTGGRTNYADSVKGRFTISRDNAKNTVYLQMNSLKPEDTPVYYCYAPVLDVIDVFYYARILFGYWGQGTQVTVSS”, the “polyreactivity (PSR sort gate)” value is on record as “low polyreactivity”.
Take “QVQLVESGGGLVQARGSLRLSCAASGLTFRWYSMGWYRQAPGKERELVAAISSGGRTYYADSVKGRFTISRDNAKNTVYLQMNSLKPEDTAVYYCSKRTLDYGFGSYGREYWGEGTQVTVSS”: the “polyreactivity (PSR sort gate)” value is recorded as “high polyreactivity”.
The result for “QVQLEESGGGLVQAGGSLRLSCAASGFTFTRNAMGWYRQAPGKERELVAAISRGGSTNYADSVQGRFRISSDNAKNTVYLQMNSLKPEDTAVYYCAKVRTRATPGVDYYYWGQGTQVTVSS” reads “high polyreactivity”; that for “QVQLVESGGGLVQAGGSLRLSCAASGSIFLYNAMGWYRPAPGKERELVAAISKSGGSTYYADSVKGRFTISRDNAKNTVYLQMNSLKPEDTAVYYCAAGYGRRIRYGSEYDYWGQGTQVTVSS”, “low polyreactivity”.
To “QVQLVESGGGLVQAGGSLRLSCAASGSTLTDYAMGWYRQAPGKERELVAAITSDGDSTNYADSVKGRFTISRDNAKNTVYLQMNSLKPEDTAVYYCAAQGKYHYYVPAYEYWGQGTQVTVSS” belongs “low polyreactivity”; to “QVQLVESGGGLVQAGGSLRLSCAASGITFPGYAMGWYRQAPGKERELVAAIDWSGDGTYYADSVKGRFTISRDNAKNTVYLQMNSLKPEDTAVYYCAKDNYPNHSTVLAVIYDYWGQGTQVTVSS”, “low polyreactivity”.
With “QVQLVESGGGLVQAGGSLRLSCAASGRIFRYYAMGWYRQAPGKERELVASISNGGGTYYADSVKGRFTISRDNAKNTVYLQMNSLKPEDTAVYYCNARKWSQYIVPLRDYWGQGTQVTVSS”, the “polyreactivity (PSR sort gate)” value is on record as “high polyreactivity”.
“QVQLVESGGGLVQAGCSLRLSCAASGRTFARYVMGWYRQAPGKEREFVATISTSGTSTYYADSVKGRFTISRDNAKNTVYLQMNSLKPAETAVYYCAARRTTRGYDYWGQGTQVTVSS”: the “polyreactivity (PSR sort gate)” value is recorded as “high polyreactivity”.
To “QVQLVESGGGLVQAGGSLSLSCAASGPTFTQNVMGWYRQAPGKERELVAGISSGDITNYADSVKGRFTISRDNAKNTVYLQMNSLKPEDTAVYFCTYYGKSGGYRYTYYYWGQGTQVTVSS” belongs “high polyreactivity”; to “QVQLVESGGGLVQAGGSLRLSCAASGRIFSWNTMGWYRQAPGKERELVAAITQSGSTYYADSVKGRFTISRDNAKNTVYLQMNSLKPEDTAVYYCAAVVGRRLYPRYDYWGQGTQVTVSS”, “high polyreactivity”; to “QVQLVESGGGLVQAGGSLRLSCAASGLIFARYVMGWSRQAPGKERELVADIDKGGGSTYYADSVKGRFTISRDNAKNTVYLQMNSLKPEDTAVYYCNADFDGWWWDDYWGQGTQVTVSS”, “high polyreactivity”.
Take “QVQLVESGGGLVQAGGSLRLSCAASGIIFVINAMGWYRQAPGKERELVATITGSGTTNYADSVKGRFTISRDNAKNTVYLHMNSLKPEDTAVYYCARDDTEYARTGAYDYWGQGTQVTVSS”: the “polyreactivity (PSR sort gate)” value is “low polyreactivity”.
In the case of “QVQLVESGGGLVQAGGSLRLSCAASGFIFDYYAMGWYRHAPGKERELVAAITSRGGSTYYADSVKGRFTISRDNAKNTVYLQMNSLKPEDTAVYYCAARRRSAEYNYWGQGTQVTVSS”, the “polyreactivity (PSR sort gate)” value is “high polyreactivity”.
To “QVQLVESGGGLVQAGGSLRLSCAASGFILKYYAMGWYRQAPGKERELVAAISVRGGSTYYADSVKGRFTISRDNAKNTVYLQMNSLKPEDTAVYYCAARHRYGGAFVDYDYWGQGTQVTVSS” belongs “high polyreactivity”; to “QVQLVESGGGLVQAGGSLRLSCAASGSTFQLYAMGWYRQAPGKEREFVAAIRGRGGNTYADSVKGRFTISRDNAKNTVFLQMNSLKPEDTAVYYCAAPLLRDLRSPYSYNYWGQGTQVTVSS”, “low polyreactivity”.
